# Measurements as given in the Human Domainome abundance scans (Beltran et al. 2025).
# ± gives the uncertainty stated by the source.
# B1: TGF-beta-activated kinase 1 and MAP3K7-binding protein 3, residues 12 to 50; numbered along this chain, Q8N5C8 (parent)
# chain: VLHDLRQRFPEIPEGVVSQCMLQNNNNLEACCRALSQES
# Variants of: B1
# Assay: abundance fitness (aPCA) (normalised: wild type 0, dead -1); higher = more abundant; growth selection in yeast, the domain comes from the species named
# Settings: Homo sapiens
row,Variant,abundance fitness
1,VLHDLRQRFPEIYEGVVSQCMLQNNNNLEACCRALSQES [P13Y],-0.926 ± 0.48
2,VLHDLRQRFPTIPEGVVSQCMLQNNNNLEACCRALSQES [E11T],-0.214 ± 0.057
3,VLHDLRQRFPFIPEGVVSQCMLQNNNNLEACCRALSQES [E11F],-0.479 ± 0.13
4,VLHDLRQRFPSIPEGVVSQCMLQNNNNLEACCRALSQES [E11S],-0.189 ± 0.05
5,VLHDLRQRFPLIPEGVVSQCMLQNNNNLEACCRALSQES [E11L],-0.416 ± 0.067
6,VLHDLRQRFPYIPEGVVSQCMLQNNNNLEACCRALSQES [E11Y],-0.324 ± 0.16
7,VLHDLRQRFPRIPEGVVSQCMLQNNNNLEACCRALSQES [E11R],-0.444 ± 0.046
8,VLHDLRQRFPWIPEGVVSQCMLQNNNNLEACCRALSQES [E11W],-0.126 ± 0.05
9,VLHDLRQRFPGIPEGVVSQCMLQNNNNLEACCRALSQES [E11G],-0.13 ± 0.041
10,VLHDLRQRFPNIPEGVVSQCMLQNNNNLEACCRALSQES [E11N],-0.115 ± 0.1
11,VLHDLRQRFPDIPEGVVSQCMLQNNNNLEACCRALSQES [E11D],0.111 ± 0.069
12,VLHDLRQRFPHIPEGVVSQCMLQNNNNLEACCRALSQES [E11H],-0.11 ± 0.11
13,VLHDLRQRFPMIPEGVVSQCMLQNNNNLEACCRALSQES [E11M],-0.213 ± 0.046
14,VLHDLRQRFPAIPEGVVSQCMLQNNNNLEACCRALSQES [E11A],-0.511 ± 0.064
15,VLHDLRQRFPVIPEGVVSQCMLQNNNNLEACCRALSQES [E11V],-0.726 ± 0.099
16,VLHDLRQRFPPIPEGVVSQCMLQNNNNLEACCRALSQES [E11P],-0.764 ± 0.31
17,VLHDLRQRFPQIPEGVVSQCMLQNNNNLEACCRALSQES [E11Q],-0.166 ± 0.06
18,VLHDLRQRFPKIPEGVVSQCMLQNNNNLEACCRALSQES [E11K],-0.535 ± 0.41
19,VLHDLRQRYPEIPEGVVSQCMLQNNNNLEACCRALSQES [F9Y],-0.04 ± 0.26
20,VLHDLRQRFAEIPEGVVSQCMLQNNNNLEACCRALSQES [P10A],-0.943 ± 0.098
21,VLHDLRQRFSEIPEGVVSQCMLQNNNNLEACCRALSQES [P10S],-0.595 ± 0.11
22,VLHDLRQRFVEIPEGVVSQCMLQNNNNLEACCRALSQES [P10V],-0.921 ± 0.076

row,Variant,abundance fitness
1,VLHDLRQRFWEIPEGVVSQCMLQNNNNLEACCRALSQES [P10W],-0.962 ± 0.17
2,VLHDLRQRFTEIPEGVVSQCMLQNNNNLEACCRALSQES [P10T],-0.906 ± 0.17
3,VLHDLRQRFREIPEGVVSQCMLQNNNNLEACCRALSQES [P10R],-0.96 ± 0.12
4,VLHDLRQRFEEIPEGVVSQCMLQNNNNLEACCRALSQES [P10E],-0.758 ± 0.064
5,VLHDLRQRFQEIPEGVVSQCMLQNNNNLEACCRALSQES [P10Q],-0.956 ± 0.22
6,VLHDLRQRFLEIPEGVVSQCMLQNNNNLEACCRALSQES [P10L],-1.16 ± 0.32
7,VLHDLRQRFKEIPEGVVSQCMLQNNNNLEACCRALSQES [P10K],-1.07 ± 0.17
8,VLHDLRQRFGEIPEGVVSQCMLQNNNNLEACCRALSQES [P10G],-0.78 ± 0.066
9,VLHDLRQRFMEIPEGVVSQCMLQNNNNLEACCRALSQES [P10M],-0.806 ± 0.39
10,VLHDLRQRFDEIPEGVVSQCMLQNNNNLEACCRALSQES [P10D],-0.672 ± 0.15
11,VLHDLRQRFPEIPCGVVSQCMLQNNNNLEACCRALSQES [E14C],-0.613 ± 0.1
12,VLHDLRQRFPEIPLGVVSQCMLQNNNNLEACCRALSQES [E14L],-0.142 ± 0.041
13,VLHDLRQRFPEIPFGVVSQCMLQNNNNLEACCRALSQES [E14F],-1.02 ± 0.3
14,VLHDLRQRFPEIPKGVVSQCMLQNNNNLEACCRALSQES [E14K],-0.831 ± 0.13
15,VLHDLRQRFPEIPIGVVSQCMLQNNNNLEACCRALSQES [E14I],-0.246 ± 0.064
16,VLHDLRQRFPEIPHGVVSQCMLQNNNNLEACCRALSQES [E14H],0.117 ± 0.19
17,VLHDLRQRFPEIPNGVVSQCMLQNNNNLEACCRALSQES [E14N],-0.738 ± 0.14
18,VLHDLRQRFPEIPMGVVSQCMLQNNNNLEACCRALSQES [E14M],-0.377 ± 0.11
19,VLHDLRQRFPEIPDGVVSQCMLQNNNNLEACCRALSQES [E14D],-0.308 ± 0.1
20,VLHDLRQRFPEIPSGVVSQCMLQNNNNLEACCRALSQES [E14S],-0.416 ± 0.044
21,VLHDLRQRFPEIPQGVVSQCMLQNNNNLEACCRALSQES [E14Q],-0.255 ± 0.062
22,VLHDLRQRFPEIPRGVVSQCMLQNNNNLEACCRALSQES [E14R],-0.668 ± 0.052

row,Variant,abundance fitness
1,VLHDLRQRFPEIPVGVVSQCMLQNNNNLEACCRALSQES [E14V],-0.24 ± 0.036
2,VLHDLRQRFPEIPYGVVSQCMLQNNNNLEACCRALSQES [E14Y],-0.256 ± 0.18
3,VLHDLRQRFPEIPTGVVSQCMLQNNNNLEACCRALSQES [E14T],-0.549 ± 0.093
4,VLHDLRQRFPEIPPGVVSQCMLQNNNNLEACCRALSQES [E14P],-0.143 ± 0.072
5,VLHDLRQRFPEIPGGVVSQCMLQNNNNLEACCRALSQES [E14G],-0.829 ± 0.066
6,VLHDLRQRFPERPEGVVSQCMLQNNNNLEACCRALSQES [I12R],-0.788 ± 0.077
7,VLHDLRQRFPEMPEGVVSQCMLQNNNNLEACCRALSQES [I12M],-0.12 ± 0.059
8,VLHDLRQRFPEKPEGVVSQCMLQNNNNLEACCRALSQES [I12K],-0.577 ± 0.082
9,VLHDLRQRFPEVPEGVVSQCMLQNNNNLEACCRALSQES [I12V],-0.042 ± 0.042
10,VLHDLRQRFPESPEGVVSQCMLQNNNNLEACCRALSQES [I12S],-0.825 ± 0.12
11,VLHDLRQRFPEDPEGVVSQCMLQNNNNLEACCRALSQES [I12D],-1.04 ± 0.24
12,VLHDLRQRFPEWPEGVVSQCMLQNNNNLEACCRALSQES [I12W],-0.737 ± 0.11
13,VLHDLRQRFPEAPEGVVSQCMLQNNNNLEACCRALSQES [I12A],-0.533 ± 0.068
14,VLHDLRQRFPEGPEGVVSQCMLQNNNNLEACCRALSQES [I12G],-0.981 ± 0.091
15,VLHDLRQRFPELPEGVVSQCMLQNNNNLEACCRALSQES [I12L],-0.094 ± 0.046
16,VLHDLRQRFPEEPEGVVSQCMLQNNNNLEACCRALSQES [I12E],-0.619 ± 0.076
17,VLHDLRQRFPECPEGVVSQCMLQNNNNLEACCRALSQES [I12C],-0.467 ± 0.078
18,VLHDLRQRFPETPEGVVSQCMLQNNNNLEACCRALSQES [I12T],-0.276 ± 0.15
19,VLHDLRQRFPEHPEGVVSQCMLQNNNNLEACCRALSQES [I12H],-0.209 ± 0.17
20,VLHDLRQRFPEQPEGVVSQCMLQNNNNLEACCRALSQES [I12Q],-0.43 ± 0.073
